# Publication PMC6626044, “Molecular basis of egg coat cross-linking sheds light on ZP1-associated female infertility” (Nature Communications, 2019)
# Columns and labels:
# [1] = biological target: chicken ZP1 ZP-N1 domain, recombinant, wild type (chicken); assay: non-reducing against reducing SDS-PAGE with immunoblot; conditioned medium of transfected HEK293 cells, anti-5His immunoblot; shows only covalent (disulphide-bonded) oligomers
# [2] = biological target: chicken ZP1 ZP-N1 domain, recombinant, wild type (chicken); assay: SEC; IMAC-purified protein, analytical SEC at 4 °C in 20 mM Na-HEPES pH 7.8, 150 mM NaCl (HiLoad 26/600 Superdex 75 pg or Superdex 75 Increase 10/300 GL), fractions on Coomassie-stained SDS-PAGE
# [3] = biological target: chicken ZP1, full length, 6His-tagged (chicken); assay: non-reducing against reducing SDS-PAGE with immunoblot; conditioned medium of transfected HEK293 cells, anti-5His immunoblot; shows only covalent (disulphide-bonded) oligomers
# [4] = biological target: chicken ZP4 ZP-N1 domain, 6His-tagged (chicken); assay: SEC; IMAC-purified protein, analytical SEC at 4 °C in 20 mM Na-HEPES pH 7.8, 150 mM NaCl (HiLoad 26/600 Superdex 75 pg or Superdex 75 Increase 10/300 GL), fractions on Coomassie-stained SDS-PAGE
# [5] = biological target: ~21 kDa N-terminal fragment of native chicken ZP1 (chicken); assay: non-reducing against reducing SDS-PAGE with immunoblot; SEC fractions (Sephacryl S-300 HR) of chicken egg coat solubilised by sperm protease, anti-cZP1 N-terminal fragment polyclonal; bands confirmed by MALDI-MS/MS
# [6] = biological target: the molecule itself; assay: non-reducing against reducing SDS-PAGE with immunoblot; conditioned medium of transfected HEK293 cells, anti-5His immunoblot; shows only covalent (disulphide-bonded) oligomers
# [7] = biological target: the molecule itself; assay: SEC; IMAC-purified protein, analytical SEC at 4 °C in 20 mM Na-HEPES pH 7.8, 150 mM NaCl (HiLoad 26/600 Superdex 75 pg or Superdex 75 Increase 10/300 GL), fractions on Coomassie-stained SDS-PAGE
molecule,measurement,setting,value
"chicken ZP1 ZP-N1 domain, recombinant, wild type (domain or fragment)",stoichiometry N,[1],2
same,stoichiometry N,[2],2
"chicken ZP1, full length, 6His-tagged (natural protein)",stoichiometry N,[3],2
"chicken ZP4 ZP-N1 domain, 6His-tagged (from UniProt A0A8V0ZLW5 1-148) (domain or fragment)",stoichiometry N,[4],2
~21 kDa N-terminal fragment of native chicken ZP1 (domain or fragment),stoichiometry N,[5],2
"human ZP1, wild type, 6His-tagged (natural protein, UniProt P60852 26-553, looked up, human zona pellucida glycoprotein 1 (hZP1), wild type, synthetic cDNA in pHLsec3; the secreted form in the medium was analysed; also called hZP1; full-length hZP1; source: HEK293T, transiently transfected, secreted into the conditioned medium) RWLQPDPGLPGLRHSYDCGIKGMQLLVFPRPGQTLRFKVVDEFGNRFDVNNCSICYHWVTSRPQEPAVFSADYRGCHVLEKDGRFHLRVFMEAVLPNGRVDVAQDATLICPKPDPSRTLDSQLAPPAMFSVSTPQTLSFLPTSGHTSQGSGHAFPSPLDPGHSSVHPTPALPSPGPGPTLATLAQPHWGTLEHWDVNKRDYIGTHLSQEQCQVASGHLPCIVRRTSKEACQQAGCCYDNTREVPCYYGNTATVQCFRDGYFVLVVSQEMALTHRITLANIHLAYAPTSCSPTQHTEAFVVFYFPLTHCGTTMQVAGDQLIYENWLVSGIHIQKGPQGSITRDSTFQLHVRCVFNASDFLPIQASIFPPPSPAPMTQPGPLRLELRIAKDETFSSYYGEDDYPIVRLLREPVHVEVRLLQRTDPNLVLLLHQCWGAPSANPFQQPQWPILSDGCPFKGDSYRTQMVALDGATPFQSHYQRFTVATFALLDSGSQRALRGLVYLFCSTSACHTSGLETCSTACSTGTTRQ",stoichiometry N,[6],2
"mouse ZP1 ZP-N1 domain, 6His-tagged, wild type (domain or fragment, UniProt Q62005 21-141, looked up, signal peptide in the construct; mouse ZP1 ZP-N1 domain, M1-A141, in pHLsec3; Heterogeneous glycosylation at N49 and N68 gives two bands on SDS-PAGE; also called mZP1-N1; mZP1-N1_(M1-A141); source: HEK293, transiently transfected; conditioned medium, and purified (IMAC, SEC); not shown: 6His, C-terminal, kept) QRLHLEPGFEYSYDCGVRGMQLLVFPRPNQTVQFKVLDEFGNRFEVNNCSICYHWVTSEAQEHTVFSADYKGCHVLEKDGRFHLRVFIQAVLPNGRVDIAQDVTLICPKPDHTVTPDPYLA",stoichiometry N,[7],2
"human ZP1 ZP-N1 domain, H102 mutant (domain or fragment) RWLQPDPGLPGLRHSYDCGIKGMQLLVFPRPGQTLRFKVVDEFGNRFDVNNCSICYHWVTSRPQEPAVFSADYRGCAVLEKDGRFHLRVFMEAVLPNGRVDVAQDATLICPKPDPSRTLDSQLA",stoichiometry N,[6],2
"human ZP1 ZP-N1 domain, H82 mutant (domain or fragment) RWLQPDPGLPGLRHSYDCGIKGMQLLVFPRPGQTLRFKVVDEFGNRFDVNNCSICYAWVTSRPQEPAVFSADYRGCHVLEKDGRFHLRVFMEAVLPNGRVDVAQDATLICPKPDPSRTLDSQLA",stoichiometry N,[6],2
"human ZP1 ZP-N1 domain, His-tagged, wild type (domain or fragment, UniProt P60852 26-149, looked up, signal peptide in the construct; human ZP1 ZP-N1 domain, M1-A149; also called hZP1-N1; hZP1_(M1-A149); source: HEK293T, transiently transfected; conditioned medium, and purified (IMAC, SEC); not shown: His, C-terminal, kept) RWLQPDPGLPGLRHSYDCGIKGMQLLVFPRPGQTLRFKVVDEFGNRFDVNNCSICYHWVTSRPQEPAVFSADYRGCHVLEKDGRFHLRVFMEAVLPNGRVDVAQDATLICPKPDPSRTLDSQLA",stoichiometry N,[6],2
